According to US12043658B2, “Conjugate comprising an active MMP-9-binding peptide” (Daiichi Sankyo Company, Limited, priority 2017, dated 2024):

B1: M91002_G2: C-terminal derivative of M91002: Stag+linker 2 at the N-terminal, C-terminal 2-mer Gly-Gly (protein)
chain: GSGMKETAAAKFERQHMDSPDLGTDDDDKAMAENLYFQGDPQFGLFSKYRTPNCRTGRGPACQMGFQPVCGSDMSTYANECTLCMKIREGGHNIKIIRNGPCGG
B2: M91002_G0: C-terminal derivative of M91002: Stag+linker 2 at the N-terminal, no C-terminal addition (protein)
chain: GSGMKETAAAKFERQHMDSPDLGTDDDDKAMAENLYFQGDPQFGLFSKYRTPNCRTGRGPACQMGFQPVCGSDMSTYANECTLCMKIREGGHNIKIIRNGPC
modifications: linker; binder
notes: C-terminal derivative of M91002: Stag+linker 2 at the N-terminal, no C-terminal addition
B3: M91002_G3: C-terminal derivative of M91002: Stag+linker 2 at the N-terminal, C-terminal 3-mer Gly-Gly-Gly (protein)
chain: GSGMKETAAAKFERQHMDSPDLGTDDDDKAMAENLYFQGDPQFGLFSKYRTPNCRTGRGPACQMGFQPVCGSDMSTYANECTLCMKIREGGHNIKIIRNGPCGGG
B4: M91005_D1G-Fc-01: N-terminal derivative Fc conjugate: Stag+linker 1, M91005_D1G, C-terminal 6-mer, G4S linker and human IgG1 Fc (protein)
chain: GSGMKETAAAKFERQHMDSPDLGTDDDDKAMADIGSANSGPQFGLFSKYRTPNCRKRGGPSCQMSYNPVCGSDMSTYANECTLCMKIREGGHNIKIIRNGPCGASAAAGGGGSDKTHTCPPCPAPELLGGPSVFLFPPKPKDTLMISRTPEVTCVVVDVSHEPEVKFNWYVDGVEVHNAKTKPREEQYNSTYRVVSVLTVLHQDWLNGKEYCKVSNKALPAPIEKTISKAKGQPREPQVYTLPPSREEMTKNQVSLTCLVGFYPSDIAVEWESNGQPENNYKTTPPVLDSDGSFFLYSKLTVDKSRWQQNVFSCSVMHEALHNHYTQKSLSLSPGK
B5: wild type SPINK2: Serine Protease Inhibitor Kazal-type 2, human, SEQ ID NO: 1 (FIG. 15) (protein, listed as Homo sapiens)
chain: DPQFGLFSKYRTPNCSQYRLPGCPRHFNPVCGSDMSTYANECTLCMKIREGGHNIKIIRNGPC

How the values were obtained:
[1] = biological target: T1, active human MMP-9 enzyme active domain (Homo sapiens, UniProt P14780); test: Size exclusion chromatography binding to active hMMP-9(cat)_His6; set-up: an enzyme active domain (Phe107-Pro449) and a His tag; made in house; host or cells: FreeStyle 293F; details: 25 μM enzyme, 75 μM inhibitor
Method: (§1) With M91005 and M91011 prepared in (1-2), active hMMP-9(cat)_His6 prepared in (2-1-4), and hMMP-9(cat)_E402Q_His6 prepared in (11-3), the binding activity was evaluated by size exclusion chromatography. 25 μM active hMMP-9(cat)_His6 or hMMP-9(cat)_E402Q_His6 and 75 μM active MMP-9-binding peptide or hTIMP-1 (in-house preparation) were mixed, and reacted at 4° C. for 1 hour. After the reaction, 10 μl of the reaction solution was analyzed by size exclusion chromatography. The chromatographic conditions were as follows.
(§2) Detection: Absorbance (280 nm)
(§3) When only active hMMP-9(cat)_His6 was analyzed, the peak of active hMMP-9(cat)_His6 was detected at a retention time of 7.0 minutes (FIG. 53(A)). When a mixture reaction solution of active hMMP-9(cat)_His6 and hTIMP-1 or active MMP-9-binding peptides M91005 or M91011 was analyzed, the retention time of the peak of active hMMP-9(cat)_His6 was shifted to the high molecular weight side (FIG. 53(A)). […] When only human MMP-9(cat)_E402Q_His6 was analyzed, the peak of hMMP-9(cat)_E402Q_His6 was detected at a retention time of 7.1 minutes (FIG. 53(B)). When a mixed reaction solution of human MMP-9(cat)_E402Q_His6 and hTIMP-1 was analyzed, the retention time of the peak of hMMP-9(cat)_E402Q_His6 was shifted to the high molecular weight side (FIG. 53(B)). […] In contrast, when a mixture reaction solution of hMMP-9(cat)_E402Q_His6 and the active MMP-9-binding peptide M91005 or M91011 was analyzed, the retention time of the peak of the hMMP-9(cat)_E402Q_His6 was not changed (FIG. 53(B)). It should be noted that when only hTIMP-1 or the active MMP-9-binding peptides M91005, M91011 was analyzed, the peak of hTIMP-1 was detected at a retention time of 7.3 minutes, the peak of the active MMP-9-binding peptide M91005 was detected at a retention time of 8.2 minutes, and the peak of the active MMP-9-binding peptide M91011 was detected at a retention time of 8.1 minutes (FIG. 53(C)).

[2] = biological target: T2, human MMP-9 enzyme active domain E402Q mutant (Homo sapiens, UniProt P14780, E402Q); test: Size exclusion chromatography binding to hMMP-9(cat)_E402Q_His6; details: 25 μM enzyme, 75 μM inhibitor
T2 construct: an enzyme active domain E402Q mutant (Phe107-Pro449, E402Q) and a His tag; made in house; host or cells: FreeStyle 293F
Method: as §1, §2, §3

[3] = biological target: T3, human MMP-9 (active hMMP-9(cat)_His6) (Homo sapiens, UniProt P14780); test: Human MMP-9 inhibitory activity of active MMP-9-binding peptide derivatives (substrate peptide); type: biochemical; details: 0.6 nM active hMMP-9(cat)_His6
T3 construct: an enzyme active domain (Phe107-Pro449) and a His tag; made in house; host or cells: FreeStyle 293F
Method: The substrate peptide MOCAc-KPLGL-A2pr (Dnp)-AR-NH2 (SEQ ID NO: 30 (FIG. 46)) (PEPTIDE […], INC.; 3226-v) was dissolved in water to 1 mM, and diluted with an assay buffer (50 mM Tris-HCl, 200 mM NaCl, 2 mM CaCl2, pH 7.5) to use at a final concentration of 2.5 to 10 μM. Fifty μl each of the active hMMP-9(cat)_His6 diluted with the assay buffer and the active MMP-9-binding peptide were mixed, and reacted at 37° C. for 1 hour. Then, 100 μl of the substrate diluted with the assay buffer was added, and fluorescence signals (excitation 328 nm/emission 393 nm) were measured with Enspire (PerkinElmer, Inc.). The final concentration of active hMMP-9(cat)_His6 was 0.4 nM, and the final concentration of the active MMP-9-binding peptide was 0.5 to 25 nM. For reactions and measurements, a ProteoSave™ SS96F black plate (Sumitomo Bakelite Co., Ltd.) was used.
According to the method described in (4-1), human MMP-9 inhibitory activity of each of the binding peptides was evaluated with 0.6 nM final concentration of active hMMP-9(cat)_His6 and 0.0015 to 100 nM final concentration of each active MMP-9-binding peptide (FIGS. 11(A), 12(A), and 13(A)).

[4] = biological target: T1, active human MMP-9 enzyme active domain; test: ELISA binding to immobilized active human MMP-9 enzyme active domain; details: 1 to 1,000 nM peptide, S-tag detection
Method: (§4) The biotin-labeled pro-hMMP-9(cat)_His6_FLAG_Avi obtained in (2-1-6) or biotin-labeled active hMMP-9(cat)_FLAG_Avi obtained in (2-1-7) was immobilized on a streptavidin coated 96-well plate (Thermo Fisher Scientific). After blocking with 3% BSA, 1 to 1,000 nM of the binding peptides were added, and reacted at room temperature for 1.5 hours. After washing, goat anti-S-Tag HRP conjugated (Bethyl Laboratories, Inc.) was added, and reacted at room temperature for 1 hour. After washing, substrates of ELISA POD substrate A.B.T.S kit (Nacalai Tesque Inc.) were added, and reacted at room temperature. After adding a reaction stop solution, the absorbance at 405 nm was measured with Enspire (PerkinElmer, Inc.), and MMP-9-binding activity of the active MMP-9-binding peptides was evaluated.

[5] = biological target: T4, pro human MMP-9 enzyme active domain (Homo sapiens, UniProt P14780); test: ELISA binding to immobilized pro human MMP-9 enzyme active domain; details: 1 to 1,000 nM peptide, S-tag detection
T4 construct: a propeptide (Ala20-Arg106), an enzyme active domain (Phe107-Pro449), a FLAG tag; made in house; host or cells: FreeStyle 293F
Method: as §4

T3 sequence (P14780 107-449): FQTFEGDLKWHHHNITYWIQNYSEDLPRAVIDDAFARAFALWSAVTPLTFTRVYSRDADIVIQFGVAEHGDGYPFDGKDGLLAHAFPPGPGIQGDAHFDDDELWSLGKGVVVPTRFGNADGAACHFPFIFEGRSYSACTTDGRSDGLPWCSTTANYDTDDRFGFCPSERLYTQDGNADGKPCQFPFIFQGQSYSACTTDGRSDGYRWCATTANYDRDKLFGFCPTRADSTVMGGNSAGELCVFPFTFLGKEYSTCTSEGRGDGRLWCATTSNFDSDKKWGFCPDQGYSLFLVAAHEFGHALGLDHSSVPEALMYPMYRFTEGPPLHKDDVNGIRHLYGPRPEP
T1 sequence (P14780 107-449): as above
T4 sequence (P14780 20-449): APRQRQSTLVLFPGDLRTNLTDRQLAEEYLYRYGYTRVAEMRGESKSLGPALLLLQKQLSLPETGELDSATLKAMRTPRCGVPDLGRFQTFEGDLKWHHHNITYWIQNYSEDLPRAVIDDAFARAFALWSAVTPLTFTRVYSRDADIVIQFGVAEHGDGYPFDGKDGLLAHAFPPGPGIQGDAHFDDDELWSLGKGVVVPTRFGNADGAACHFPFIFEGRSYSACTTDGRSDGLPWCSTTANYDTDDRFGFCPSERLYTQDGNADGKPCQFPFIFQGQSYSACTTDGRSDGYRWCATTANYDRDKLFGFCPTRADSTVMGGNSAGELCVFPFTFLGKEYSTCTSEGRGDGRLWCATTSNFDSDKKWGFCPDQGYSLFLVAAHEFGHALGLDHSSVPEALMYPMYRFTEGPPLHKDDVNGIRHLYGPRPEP
T2 sequence (P14780 107-449 E402Q): as the sequence (P14780 107-449) above, with E296Q counted along it

Row | Molecule | human MMP-9 inhibitory activity IC50 compared with parent [3] | further results
1 | hTIMP-1: hTIMP-1 (in-house preparation) [reference compound] | – | binding to active human MMP-9 enzyme active domain (peak shift) [1]: bind to the active human MMP-9 enzyme active domain; binding to human MMP-9 enzyme active domain E402Q mutant (peak shift) [2]: binds to the human MMP-9 enzyme active domain E402Q mutant
2 | B1 | equivalent to that of M91002 | –
3 | B2 | equivalent to that of M91002 | –
4 | B3 | equivalent to that of M91002 | –
5 | B4 | M91005-Fc-01 and M91005_D1G-Fc-01 are equivalent | –
6 | B5 | – | active human MMP-9-binding activity (EC50) [4]: did not bind; pro human MMP-9-binding activity [5]: did not bind
